Measured values: patent publication US20240409638A1 (AVACTA LIFE SCIENCES, published 2024)

How the values were obtained:
[1] = molecular target: T1, murine serum albumin (MSA) (murine, UniProt P07724 25-608); assay: SPR, Biacore, MSA amine-coupled on CM5; E. coli-produced format
T1 construct: Bought reagent

[2] = molecular target: T2, human serum albumin (HSA) (human, UniProt P02768 25-609); assay: SPR (Biacore 8K): HSA amine-coupled on a CM5 chip, AFFIMER as analyte, pH 6.0, 1:1 Langmuir fit
T2 construct: The assays used bought HSA (Sigma #A37812 in the SPR work); also called HuSA
T2 sequence (P02768 25-609): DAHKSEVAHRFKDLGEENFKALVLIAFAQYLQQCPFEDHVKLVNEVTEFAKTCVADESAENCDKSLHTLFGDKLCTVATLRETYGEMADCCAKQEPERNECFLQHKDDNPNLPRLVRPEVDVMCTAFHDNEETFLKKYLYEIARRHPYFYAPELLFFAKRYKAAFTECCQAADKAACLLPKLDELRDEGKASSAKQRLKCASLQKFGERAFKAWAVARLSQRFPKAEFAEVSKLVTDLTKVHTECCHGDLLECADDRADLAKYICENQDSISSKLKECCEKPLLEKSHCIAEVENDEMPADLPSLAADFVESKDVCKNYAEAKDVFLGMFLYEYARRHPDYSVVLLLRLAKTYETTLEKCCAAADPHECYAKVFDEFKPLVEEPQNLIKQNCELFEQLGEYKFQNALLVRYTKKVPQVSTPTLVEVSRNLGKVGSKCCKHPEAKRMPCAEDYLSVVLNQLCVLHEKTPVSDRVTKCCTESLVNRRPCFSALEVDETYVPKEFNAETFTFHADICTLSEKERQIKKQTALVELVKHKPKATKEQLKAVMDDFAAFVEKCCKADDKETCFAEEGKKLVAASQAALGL
Method: (§1) For the HSA binding kinetic analysis, HSA (Sigma #A37812) was immobilized on a CM5 chip surface using amine coupling in 10 mM sodium acetate (pH 5.0) (Cytvia). […] The chip surface was regenerated with 3 mM NaOH for 20 seconds at a flow rate of 20 μl/min. The kinetic data was blank subtracted and fit to a 1:1 Langmuir binding model (BIAcore evaluation software; Cytiva).

[3] = molecular target: T3, PD-L1 on cells (NCI-H441 cells; aAPC PD-L1/CHO-K1 cells, Promega) (human, UniProt Q9NZQ7 19-290); assay: flow cytometry, % positive cells, aAPC PD-L1/CHO-K1 cells (overexpressing PD-L1)
T3 construct: whole, on cells; also called human PD-L1-expressing CHO-K1 cells; H441 cells endogenously expressing PD-L1
T3 sequence (Q9NZQ7 19-290): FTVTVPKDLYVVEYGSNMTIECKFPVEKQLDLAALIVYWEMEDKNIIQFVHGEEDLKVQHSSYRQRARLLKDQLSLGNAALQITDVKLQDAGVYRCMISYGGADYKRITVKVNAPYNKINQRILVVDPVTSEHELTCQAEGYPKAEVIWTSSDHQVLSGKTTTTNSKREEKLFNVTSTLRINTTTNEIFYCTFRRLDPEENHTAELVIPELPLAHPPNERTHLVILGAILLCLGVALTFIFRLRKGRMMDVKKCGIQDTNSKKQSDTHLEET
Method: (§2) Lung cancer cell line (NCI-H441 (ATCC), CHO-K1 recombinant cell line overexpressing PD-L1 aAPC/CHO-K1 (Promega J1252)) and a negative cell line (CHO-K1, ATCC) were used to assess AFFIMER® agent binding capacity to PD-L1 by flow cytometry.
(§3) Briefly, 50 000 cells were added to each well of a 96-well microplate. After this step and each subsequent step, cells were washed twice with PBS+2 mM EDTA using 350g centrifugation for 3 minutes at 4° C. All steps were performed at 4° C. using assay buffer comprising 5% FBS, 2 mM EDTA and 0.05% sodium azide in PBS unless otherwise stated. Independent AFFIMER® agent dilutions were prepared in duplicate and added to the plates. […] Fixation was performed for 10 minutes at 4° C. with Fixation Buffer (Bio-techne FC004). Cells were resuspended in 100 ul assay buffer prior the acquisition of the data. 5000 events were collected by Flow cytometry (Millipore Guava 12HT). The results were gated on live cells and singlets (SSC-H vs SSC-A). The percentage of cells expressing PD-L1 bound by the AFFIMER® agent (positive cells) was determined by using as negative control (background) where the wells were stained with the AF488 conjugated secondary antibody only without AFFIMER® agent. The average of the duplicate wells was used to calculate EC₅₀ using a four-parameter non-linear regression curve fit using Graphpad Prism software. […]

[4] = molecular target: T2, human serum albumin (HSA); assay: HSA binding ELISA: HSA coated, bound AFFIMER detected with biotinylated anti-cystatin A antibody and streptavidin-HRP
Method: Plates were washed and AFFIMER® polypeptides were detected using streptavidin-HRP for 30 min. After the last washing step, the TMB substrate was added for the development of the experiment and plates were read at 450 nm. The EC₅₀ was then calculated using the interpolated non-linear four-parameters standard curve.

[5] = molecular target: T2, human serum albumin (HSA); assay: SPR, Biacore, HSA amine-coupled on CM5; E. coli-produced format
Method: as §1

[6] = molecular target: T3, PD-L1 on cells (NCI-H441 cells; aAPC …); assay: cell-based or functional assay
[7] = molecular target: T3, PD-L1 on cells (NCI-H441 cells; aAPC …); assay: flow cytometry, % positive cells, NCI-H441 cells (endogenous PD-L1)
Method: as §2, §3

[8] = molecular target: T2, human serum albumin (HSA); assay: SPR (Biacore 8K): HSA amine-coupled on a CM5 chip, AFFIMER as analyte, pH 7.4, 1:1 Langmuir fit
Method: as §1

[9] = molecular target: T2, human serum albumin (HSA); assay: HSA binding ELISA: HSA coated, anti-cystatin A detection
[10] = molecular target: T1, murine serum albumin (MSA); assay: SPR (Biacore): immobilized ligand MSA (Sigma # A3559), AFFIMER as analyte, pH 7.0 by the legend

Kd [1]: 269 nM | Kd [2]: 4.44 nM | koff [2]: 0.00302 s⁻¹ | kon [2]: 681000 M⁻¹ s⁻¹ | EC50 [3]: 0.036 nM | EC50 [4]: 0.03 nM | Kd [5]: 9 nM | half-maximal concentration of PD-1/PD-L1 blockade (% of inhibition, NFAT-luciferase reporter cells; IC50) [6]: 33.4 nM | EC50 [7]: 0.41 nM | Kd [8]: 6.13 nM | koff [8]: 0.00589 s⁻¹ | kon [8]: 961000 M⁻¹ s⁻¹ | EC50 [9]: 1.03 nM | koff [10]: 0.0474 s⁻¹ | kon [10]: 176000 M⁻¹ s⁻¹
B1: Clone 80 XT35 (anti-PD-L1 type III AFFIMER® XT in-line fusion dimer XT) (designed binder)
chain: MIPGGLSEAKPATPEIQEIVDKVKPQLEEKTGETYGKLEAVQYKTQVVRRKHFPQWPGTNYYIKVRAGDNKYMHLKVFKSLDLQPREVFQEDLVLTGYQVDKNKDDELTGFAEAAAKEAAAKEAAAKEAAAKEAAAKEAAAKMIPGGLSEAKPATPEIQEIVDKVKPQLEEKTGETYGKLEAVQYKTQVVRRKHFPQWPGTNYYIKVRAGDNKYMHLKVFKSLDLQPREVFQEDLVLTGYQVDKNKDDELTGFAEAAAKEAAAKEAAAKEAAAKEAAAKEAAAKMIPRGLSEAKPATPEIQEIVDKVKPQLEEKTNETYGKLEAVQYKTQVLANFFQRRWPGSTNYYIKVRAGDNKYMHLKVFNGPWKFRNTDRGADRVLTGYQVDKNKDDELTGFHHHHHH
notes: Made in E. coli; Two Clone 80 units are fused to one HSA-41; also called XT35_1; ILF trimer format
